Data on 1 substance can be found in patent publication US20160145654A1.

In assay [1] the target is human IgG from pooled human serum (Sigma-Aldrich). Nature of the assay: ELISA, granules coated on wells, pooled human serum, polyclonal anti-IgG-HRP, OPD.
For assay [2], the target named is labeled mouse IgG2b monoclonal antibody conjugated to phycoerythrin. Briefly: FACS of particles with 10 µg/ml PE labeled mouse IgG2b mAb.
Assay [3] addresses human IgG from pooled human serum (Sigma-Aldrich). Briefly: ELISA of heated granules, human serum, anti-IgG-HRP.
The target in assay [4] is labeled mouse IgG2b monoclonal antibody conjugated to phycoerythrin. Briefly: FACS of particles with 10 µg/mL PE labeled mouse IgG2b mAb.

In assay [1], “ZZ domain-PHA synthase fusion without signal peptide, on PHA granules (from UniProt P23608 1-589)” registered a fold increase in absorption at 490 nm against wild type PHA granules greater than 2 fold. In assay [2], the fold more IgG bound per particle against particles from pBHR69-ZZ(-)phaC was greater than 10 fold. This substance also displayed a binding capacity after heating for 15 min at 60° C. in assay [3] of 60%. Further, the fold increased binding affinity against particles from pBHR69-ZZ(-)phaC (about 150 nm) in assay [4] was 10 fold.
